Assays:
B7H3-hFc = target: T1, B7H3-hFc (UniProt Q5ZPR3 29-466, limits assumed); assay: ELISA, B7H3-hFc coated plate, purified hybridoma antibody
T1 construct: Construct limits, linker and Fc not described; also called B7H3-hFc protein; not shown: human Fc (hFc)
T1 sequence (looked up): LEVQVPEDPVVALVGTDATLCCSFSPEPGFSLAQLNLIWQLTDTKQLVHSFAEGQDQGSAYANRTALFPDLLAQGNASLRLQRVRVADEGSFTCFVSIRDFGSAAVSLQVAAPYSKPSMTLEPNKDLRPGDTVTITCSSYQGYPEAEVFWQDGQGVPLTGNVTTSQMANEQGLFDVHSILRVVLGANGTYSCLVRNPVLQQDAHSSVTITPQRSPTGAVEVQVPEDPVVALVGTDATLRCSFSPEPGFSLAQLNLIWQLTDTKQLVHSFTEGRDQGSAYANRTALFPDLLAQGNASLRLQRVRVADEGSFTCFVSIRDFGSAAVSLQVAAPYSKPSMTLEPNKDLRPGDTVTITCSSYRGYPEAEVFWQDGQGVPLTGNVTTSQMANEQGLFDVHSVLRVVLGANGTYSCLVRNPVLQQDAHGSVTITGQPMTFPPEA
Experimental: (1) Screening of B7H3-binding positive clones through ELISA: 50 μL of B7H3-hFc (final concentration: 2 μg/mL) was used to coat each well of a 96-well ELISA plate (Corning, Cat. No.: 9018), and incubated overnight at room temperature. After the ELISA plate was rinsed with washing buffer (PBS+0.05% Tween20) 3 times, blocking buffer (PBS+2% BSA (Sigma, Cat. No.: V90093)) was added and the ELISA plate was incubated at room temperature for 1 hour. The ELISA plate was rinsed with washing buffer 3 times; and hybridoma supernatant was added, and the ELISA plate was incubated at room temperature for 1 hour and rinsed 3 times. 100 μL of 10,000-fold diluted HRP-conjugated goat anti-mouse IgG secondary antibody (Thermo, Cat. No.: 31432) was added to each well, and the ELISA plate was incubated at room temperature for 1 hour in the dark and rinsed 3 times. 100 μL of TMB (Biocytogen, Cat. No.: ES-002) was added to each well, and the ELISA plate was incubated at room temperature for color development for 2 minutes, 100 μL of reaction terminating solution (2N H2SO4) was added to each well to terminate the color reaction, and an OD450 value of each well was read using a microplate reader (Tecan Spark). (2) Screening of B7H3-binding positive clones through FACS: 50 μL of the positive hybridoma supernatant or purified hybridoma antibody in the foregoing test was mixed with 50 μL of 293T-B7H3 cells (2×10⁵ cells/well), and a resulting mixture was added to a 96-well plate with a U-shaped bottom and left standing at 4° C. for 1 hour, the 96-well plate was rinsed with FACS buffer (PBS+3% FCS) and centrifuged twice, then 400-fold diluted PE-labeled goat anti-mouse secondary antibody (Biolegend, Cat. No.: 405307) was added, the 96-well plate was incubated at 4° C. for 30 minutes in the dark, rinsed with FACS buffer and centrifuged twice, and signal values of the cells in a PE channel were detected by using BD Accuri C6 flow cytometer. (3) Subcloning: Positive multiclonal hybridoma cells identified by ELISA and FACS were subcloned using the limiting dilution method. The subclones were further detected and screened using ELISA and FACS to obtain positive hybridoma monoclonal clones.
ELISA and FACS were conducted to detect the binding ability of purified antibody samples to B7H3. Results are shown in FIG. 1(a-b), FIG. 2(a-b) and Table 1.

[1] = target: T2, B7H3 on the cell surface (PC9 cells; 293T-B7H3 cells) (UniProt Q5ZPR3 29-534, limits assumed); assay: FACS on cells carrying B7H3 (PC9 per FIG. 2; 293T-B7H3 per method)
T2 construct: whole, on cells; both carry B7H3 on the surface; also called Cell Surface B7H3; B7H3 protein in PC9 cells
T2 sequence (looked up): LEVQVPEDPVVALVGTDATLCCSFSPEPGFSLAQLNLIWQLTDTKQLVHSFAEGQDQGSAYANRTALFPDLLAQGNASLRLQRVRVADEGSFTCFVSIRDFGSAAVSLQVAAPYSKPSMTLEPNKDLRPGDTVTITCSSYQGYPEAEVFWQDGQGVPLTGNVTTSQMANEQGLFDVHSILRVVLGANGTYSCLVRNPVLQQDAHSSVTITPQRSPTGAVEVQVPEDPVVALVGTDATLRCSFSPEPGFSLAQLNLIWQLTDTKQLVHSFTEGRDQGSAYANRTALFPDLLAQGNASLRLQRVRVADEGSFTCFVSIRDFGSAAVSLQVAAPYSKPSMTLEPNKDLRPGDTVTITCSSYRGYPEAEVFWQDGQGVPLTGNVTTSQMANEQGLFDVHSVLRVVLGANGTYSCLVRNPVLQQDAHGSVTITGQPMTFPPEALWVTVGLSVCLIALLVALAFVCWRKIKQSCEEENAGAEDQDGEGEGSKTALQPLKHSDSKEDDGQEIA

[2] = target: T2, B7H3 on the cell surface (PC9 cells; …); assay: FACS, cell surface B7H3 (PC9 cells per FIG. 10)
[3] = target: T3, Human B7H3 extracellular domain and mFc fusion protein (B7H3-ECD-mFc) (human, UniProt Q5ZPR3 29-466); assay: ELISA, B7H3-mFc protein (table title), humanized IgG1
T3 construct: extracellular domain; also called B7H3-mFc; B7H3-mFc Protein; not shown: mouse Fc (mFc)
T3 sequence (looked up): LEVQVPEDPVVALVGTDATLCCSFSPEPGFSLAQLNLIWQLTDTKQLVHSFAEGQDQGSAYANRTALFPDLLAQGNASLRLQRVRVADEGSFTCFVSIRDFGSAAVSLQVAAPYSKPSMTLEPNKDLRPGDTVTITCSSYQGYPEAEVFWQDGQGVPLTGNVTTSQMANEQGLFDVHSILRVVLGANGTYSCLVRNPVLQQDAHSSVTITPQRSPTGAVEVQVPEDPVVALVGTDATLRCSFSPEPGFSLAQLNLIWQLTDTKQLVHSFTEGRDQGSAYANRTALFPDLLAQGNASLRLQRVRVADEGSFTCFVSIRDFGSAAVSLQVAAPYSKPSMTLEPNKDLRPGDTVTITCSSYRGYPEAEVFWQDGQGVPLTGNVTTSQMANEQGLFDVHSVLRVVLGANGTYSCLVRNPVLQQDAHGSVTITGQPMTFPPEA

B1: 7B7 (antibody, mouse IgG2b, V domains shown)
VH: EVKLVESGGGLVRPGGSLKLSCAASGFTFSSYAVSWVRQTPEKRLEWVASISGGGIYIYYPDSVKGRFTISRDNAKNNLYLQMNSLTPDDTALYYCARHGGAGYFDYWGQGTTLTVSS
VL: DSLMTQSPASLSASVGETVTITCRGSESVHSYLAWYQQKQGKSPQLLVYNAKTLQSGVPSRFSGSGSGTQFSLRINSLQPEDFGTYYCQQHYGSPPWTFGGGTILEIK
notes: Murine hybridoma antibody; also called B7H3 hybridoma monoclonal antibody 7B7
B7H3-hFc
  EC50: 0.0097 µg/mL
[1]
  EC50: 0.179 µg/mL

B2: 2A9 (antibody, mouse IgG2b, V domains shown)
VH: EVQLQQSGPELVKPGASVKISCKTSGYTFTEYIMHWVKQSRGKSLEWIGGINPNSGGTTYNEKFKGKATLTVDKSASTAYMELRSLTSEDSAIYYCARRMPYWYFDVWGAGTTVTVSS
VL: QIVLTQSPAIMSASPGEKVTMTCSASSSVSYIHWYRQKSGTSPKRWVYDTSKLASGVPARFSGSGSGTSYSLTISSMEAEDAATYYCQQWVSNPLTFGAGTKLELK
notes: Murine hybridoma antibody; also called B7H3 hybridoma monoclonal antibody 2A9
B7H3-hFc
  EC50: 0.00624 µg/mL
[1]
  EC50: 0.186 µg/mL

B3: hu15A2 (antibody, IgG1, V domains shown)
VH: QVQLVQSGAEVKKPGASVKVSCKASGYTFTSYDINWVRQATGQGLEWIGWIDPGDGSTKYNEKFKGRATLTANKSISTAYMELSSLRSEDTAVYYCVRRGFDYWGQGTLVTVSS
VL: EIVLTQSPATLSLSPGERATLSCRTSSSVSYLHWFQQKPGQAPRLWIHDTSNLASGFPARFSGSGSGTDYTLTISSLEPEDFAVYYCHQRSSYPWTFGGGTKVEIK
notes: expressed in 293 cells; also called humanized antibody 15A2
[2]
  EC50: 0.0143 µg/mL
[3]
  EC50: 0.00384 µg/mL

B4: hu2A9 (antibody, IgG1, V domains shown)
VH: QVQLVQSGAEVKKPGASVKVSCKTSGYTFTEYIMHWVRQAPGQGLEWIGGINPNSGGTTYNEKFKGRATLTVDKSISTAYMELSRLRSDDTAVYYCARRMPYWYFDVWGQGTMVTVSS
VL: EIVLTQSPATLSLSPGERATLSCSASSSVSYIHWYQQKPGQAPRRWVYDTSKLASGIPARFSGSGSGTDYTLTISSLEPEDFAVYYCQQWVSNPLTFGQGTKLEIK
notes: expressed in 293 cells; also called humanized antibody 2A9; humanized 2A9
[2]
  EC50: 0.14 µg/mL
[3]
  EC50: 0.0175 µg/mL

B5: hu9C8 (antibody, IgG1, V domains shown)
VH: QVQLVQSGAEVKKPGASVKVSCKASGYTFTEYTIHWVRQAPGQGLEWIGGINPNSGGTTYNLKFKGRATLTVDKSTSTVYMELSSLRSEDTAVYYCARKEGFFTTDYWGQGTLVTVSS
VL: ETVLTQSPATLSLSPGERATLSCSASSSLSYIHWYQQKPGQAPRRWIYDTSNLATGIPARFSGSGSGTDYTLTISSLEPEDFAVYYCQQWHYNPPTFGGGTKVEIK
notes: expressed in 293 cells; also called humanized antibody 9C8; humanized 9C8
[2]
  EC50: 0.079 µg/mL
[3]
  EC50: 0.0199 µg/mL

B6: hu4F11 (antibody, IgG1, V domains shown)
VH: QVQLVQSGAEVKKPGASVKVSCKTSGYTFTEYIMHWVRQAPGQGLEWIGGINPNTGGITYNQKFKDRATLTVDKSISTAYMELSRLRSDDTAVYYCARAGGNFLWYFDVWGQGTMVTVSS
VL: EIVLTQSPATLSLSPGERATLSCSASSSVSYMHWYQQKPGQAPRRWLYDTSKLASGIPARFSGSGSGTDYTLTISSLEPEDFAVYYCQQWNSNPLTFGQGTKLEIK
notes: expressed in 293 cells; also called humanized antibody 4F11; humanized 4F11
[2]
  EC50: 0.127 µg/mL
[3]
  EC50: 0.0406 µg/mL

B7: 7C9 (antibody, mouse IgG1, V domains shown)
VH: EVQLQQSGTELVRPGALVKLSCKASALNIKDFYMHWVKQRPERGLEWIGWIDPDNGNTIYDPKFQGKASITADISSSTAYLQLSSLTSEDTAVYYCARSSTRQRPFDYWGQGTTLTVSS
VL: DIVMTQSHKVMSTSVGDRVSITCKASQDVRTGVAWYQQKPGQSPKLLIYSAFYRYTGVPDRFTVSGSGADFTFTITSVQAEDLAVYYCQQYYSIPWTFGGGTKLEIK
notes: Murine hybridoma antibody; also called B7H3 hybridoma monoclonal antibody 7C9
B7H3-hFc
  EC50: 0.0099 µg/mL
[1]
  EC50: 0.103 µg/mL

B8: hu7B7 (antibody, IgG1, V domains shown)
VH: EVQLVESGGGLVKPGGSLRLSCAASGFTFSSYAVSWVRQAPGKGLEWVASISGGGIYIYYPDSVKGRFTISRDNAKNSLYLQMNSLRAEDTAVYYCARHGGAGYFDYWGQGTLVTVSS
VL: DSQMTQSPSSLSASVGDRVTITCRGSESVHSYLAWYQQKPGKAPKLLVYNAKTLQSGVPSRFSGSGSGTDFTLTISSLQPEDFATYYCQQHYGSPPWTFGGGTKVEIK
notes: expressed in 293 cells; also called humanized antibody 7B7
[2]
  EC50: 0.0113 µg/mL
[3]
  EC50: 0.00635 µg/mL

B9: hu5B6 (antibody, IgG1, V domains shown)
VH: QVQLVQSGAEVKKPGSSVKVSCKASGYTFITYTIHWVRQAPGQGLEWIGYINPTSDYANFNQKFKDRATLTADKSTSTAYMELSSLRSEDTAVYYCARWGTTVFQFYFDYWGQGTLVTVSS
VL: EIVLTQSPATLSLSPGERATLSCRASQSLSYINWYQQKPGKAPKPWIYATSSLQSGVPSRFSGSASGTDYTLTISSLQPEDFATYYCQHWSSDPPTIGGGTKVEIK
notes: expressed in 293 cells; also called humanized antibody 5B6; humanized 5B6
[2]
  EC50: 0.0621 µg/mL
[3]
  EC50: 0.0127 µg/mL

B10: 7E6 (antibody, mouse IgG1, V domains shown)
VH: QVQLQQSGPELVRPGVSVKISCKGSGYTFTDYAMHWVKQSHAKSLEWIGVINSYYGNTHYNQKFKGKATMTVDKSSSTAYMELARLTSEDSAIYYCARAGGYSYGSSYRPDRFAYWGQGTLVIVSA
VL: DIQMTQSPASQSASLGESVTITCLASQTIGTWLAWYQQKPGKSPQLLIYAATNLADGVPSRFSGSGSGTKFSFKISSLQAEDFVSYYCQQLYSTPYTFGGGTKLEIK
notes: Murine hybridoma antibody; also called B7H3 hybridoma monoclonal antibody 7E6
B7H3-hFc
  EC50: 0.00449 µg/mL
[1]
  EC50: 0.0526 µg/mL

B11: 15A2 (antibody, mouse IgG1, V domains shown)
VH: QVQLQQSGPEVVKPGALVRISCKASGYTFTSYDINWVKQRPGQGLEWIGWIDPGDGSTKYNEKFKGKATLTADKSSSTAYMQFSSLTSENSAVYFCVRRGFDYWGQGTTLTVSS
VL: QILLTQSPAIMSASPGEKVTMTCRTSSSVSYLHWFQQKPGSSPKLWIHDTSNLASGFPARFSGSGSGTSYSLIISSMEAEDAATYYCHQRSSYPWTFGGGTKLEIK
notes: Murine hybridoma antibody; also called B7H3 hybridoma monoclonal antibody 15A2
B7H3-hFc
  EC50: 0.00151 µg/mL
[1]
  EC50: 0.0062 µg/mL

— patent publication US20250276082A1 (INNOLAKE BIOPHARMA HANGZHOU, published 2025)
